# Laboratory results as given in patent US20240067748A1 (NONA BIOSCIENCES SUZHOU, published 2024).
# Residue numbers refer to the chain shown, from its start.
# T1: human TROP2 protein (Sino Biological, #10428-H08H) (human, UniProt P09758 27-274)
# T1 construct: bought protein; also called human Trop2 protein antigen (His tag); not shown: His tag
# T1 sequence (looked up): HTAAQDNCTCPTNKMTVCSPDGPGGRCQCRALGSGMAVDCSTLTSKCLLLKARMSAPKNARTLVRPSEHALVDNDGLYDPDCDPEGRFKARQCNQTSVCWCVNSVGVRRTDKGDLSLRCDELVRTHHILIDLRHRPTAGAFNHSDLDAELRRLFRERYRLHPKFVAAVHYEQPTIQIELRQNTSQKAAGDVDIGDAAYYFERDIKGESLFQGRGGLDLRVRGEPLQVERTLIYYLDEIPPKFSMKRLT
# T2: monkey Trop2 protein (Sino Biological, #90893-C08H) (monkey, UniProt A0A2K5UE71 27-274)
# T2 construct: bought protein; also called monkey Trop2 protein antigen (His tag)
# T2 sequence: T1 sequence (looked up) with M36V, K46E, S67N, I204V
# T3: human Trop2 on cells (human, UniProt P09758 27-323)
# T3 construct: whole, on cells; also called hTrop2; 293T-human Trop2 cells
# T3 sequence (looked up): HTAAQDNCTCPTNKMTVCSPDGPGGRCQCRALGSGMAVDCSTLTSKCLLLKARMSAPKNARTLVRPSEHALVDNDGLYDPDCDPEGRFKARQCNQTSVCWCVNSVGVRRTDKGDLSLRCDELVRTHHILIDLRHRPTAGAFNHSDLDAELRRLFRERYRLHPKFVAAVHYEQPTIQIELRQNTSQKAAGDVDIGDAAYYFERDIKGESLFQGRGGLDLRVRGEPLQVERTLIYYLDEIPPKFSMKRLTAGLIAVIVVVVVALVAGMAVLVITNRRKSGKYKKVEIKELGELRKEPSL
# B1: PR001132 (antibody, human IgG1, kappa, V domains shown)
# VH: QVELVESGGGVVQPGRSLRLSCGASGFTFSSYNMYWVRQAPGKGLEWVAGIWDDGNNKYYANSVKGRFTISRDNSKNTLYLQMNSLRTEDTALYYCAKDGWGSYGEYFQHWGQGTLVTVSS
# VL: DIQMTQSPSSLSASVGERVTITCRASQNINSYLSWYQQKPGKAPKLLIYAASSLQNGVPSRFSGSGSGTDFTLTISSLQPEDFATYYCQQSFSTPPITFGQGTRLEIKR
# notes: fully human IgG1/kappa; also called antibody No. (4)
# B2: PR001171 (antibody, human IgG1, kappa, V domains shown)
# VH: QVQLVESGGGVVQPGRSLRLSCAASGFTFSHYGMHWVRQAPGKGLEWVAVIWYDGIKKNYVESVKGRFTISRDNSKNTLNLQMNRLRAEDTAVYYCARDGGFGESNYYGLDVWGQGTTVTVSS
# VL: DIQLTQSPSFLSASVGDRVTITCRASQGISSYLGWYQQKPGKAPKLLIYIASTLQSGVPSRFSGSGSGTEFTLTISSLQPEDFATYYCQQLNSYPYTFGQGTKLEIKR
# notes: fully human IgG1/kappa; also called antibody No. (30)
# B3: PR001150 (antibody, human IgG1, kappa, V domains shown)
# VH: B2 VH with G15E, R16K, A40V, K58R, N59Y, N80Y
# VL: B2 VL with S30N, Q38R
# notes: fully human IgG1/kappa; also called antibody No. (13)
# B4: PR001152 (antibody, human IgG1, kappa, V domains shown)
# VH: B2 VH with G10A, K58S, N59Y, N80Y, N84D
# VL: B2 VL with S30N, Q38R
# notes: fully human IgG1/kappa; also called antibody No. (15)
# B5: PR001156 (antibody, human IgG1, kappa, V domains shown)
# VH: B2 VH with A23E, A24G, E62D, V64L, N80Y, R85S, S105L, L110M
# VL: B2 VL
# notes: fully human IgG1/kappa; also called antibody No. (19)
# B6: PR001151 (antibody, human IgG1, kappa, V domains shown)
# VH: B2 VH with N59D, N80Y, S105L
# VL: B2 VL with I50V
# notes: fully human IgG1/kappa; also called antibody No. (14)
# B7: PR001154 (antibody, human IgG1, kappa, V domains shown)
# VH: B2 VH with A23E, N59Y, V61I, T69I, N80Y, S105L
# VL: B2 VL with I50V
# notes: fully human IgG1/kappa; also called antibody No. (17)
# B8: PR001159 (antibody, human IgG1, kappa, V domains shown)
# VH: B2 VH with A23E, K58T
# VL: B2 VL
# notes: fully human IgG1/kappa; also called antibody No. (21)
# B9: PR001155 (antibody, human IgG1, kappa, V domains shown)
# VH: B2 VH with E6Q, N59Y, N80Y, S105L
# VL: B2 VL with I50V
# notes: fully human IgG1/kappa; also called antibody No. (18)
# B10: PR001158 (antibody, human IgG1, kappa, V domains shown)
# VH: B2 VH with A23V, N59Y
# VL: B2 VL
# notes: fully human IgG1/kappa; also called antibody No. (20)
# B11: PR001170 (antibody, human IgG1, kappa, V domains shown)
# VH: QVQLQESGPGLVKPSETLSLTCAVSGYSINSGYFWAWIRQPPGMGLEWIGSIYHSGRTHYNPSLKSRVIISLDTSKNQFSLKLRSVTAADSAVYYCAREGYASGSYYWGQGTLVTVSS
# VL: EIVMTQSPATLSVSPGERATLSCRSSQSVNSYLAWFQQKPGQAPRLLIYDSSTRATGIPARFSGSGSGTEFTLTISSLQSEDFAFYFCQQYENWPLTFGGGTKVEIKR
# notes: fully human IgG1/kappa; also called antibody No. (29)
# B12: PR001138 (antibody, human IgG1, kappa, V domains shown)
# VH: QVQLQESGPRLVKPSETLSLTCAVSGYSISSGYYWGWIRQSPGMGLEWIAYIYHDGSTYCNPSLKSRVTMSVDTSKNQFSLKLRSVTAADTAVYYCARDGAAAPFDYWGQGTLVTVSS
# VL: DIQMTQSPSTLSASVGDRVTITCRASQSISNWLAWYQQKPGKAPKVLIYKASSLESGVPSRFSGSGSGTEFTLTINSLQPDDFATYYCQQYDSYSITFGQGTRLEIKR
# notes: fully human IgG1/kappa; also called antibody No. (7)
# Biological target: T1, human TROP2 protein (Sino Biological, …)
# Assay: BLI, Octet RED96, AHC sensor
# Procedure: (§1) Specifically, a human TROP2 protein (Sino Biological, #10428-H08H) or a monkey Trop2 protein (Sino Biological, #90893-C08H) was diluted to 200 nM with a PBS buffer (pH 7.4) containing 0.1% (w/w) BSA and 0.02% (v/v) tween 20, and incubated with the AHC sensor respectively. 40 nM Trop2 antibody was incubated at 30° C. for 3 min with the AHC sensor loaded with the human Trop2 protein or monkey Trop2 protein respectively. The reaction mixture was incubated at 30° C. for another 5 min in a PBS buffer (pH 7.4) containing 0.1% (v/w) BSA and 0.02% (v/v) Tween 20. The association and dissociation signals between the Trop2 antibody and the human Trop2 protein or monkey Trop2 protein were recorded by Octet Red 96 in real time. The affinity and the association and dissociation constants were determined by Octet using software.
Kd,Response,fold lower KD than the reference antibody Tab (hRS7),koff,kon,Binder
< 0.001 nM,0.417,~10 fold,< 1e-07 s⁻¹,121000 M⁻¹ s⁻¹,B1
0.0251 nM,0.326,–,3.74e-06 s⁻¹,149000 M⁻¹ s⁻¹,B2
0.0326 nM,0.382,~10 fold,5.25e-06 s⁻¹,161000 M⁻¹ s⁻¹,B3
0.135 nM,0.348,–,2.08e-05 s⁻¹,154000 M⁻¹ s⁻¹,B4
0.0916 nM,0.354,–,1.67e-05 s⁻¹,183000 M⁻¹ s⁻¹,B5
1.12 nM,0.407,–,0.000127 s⁻¹,113000 M⁻¹ s⁻¹,B6
0.855 nM,0.41,–,9.23e-05 s⁻¹,108000 M⁻¹ s⁻¹,B7
< 0.001 nM,0.38,~10 fold,< 1e-07 s⁻¹,176000 M⁻¹ s⁻¹,B8
1.84 nM,0.406,–,0.000144 s⁻¹,78100 M⁻¹ s⁻¹,B9
0.155 nM,0.433,–,2.05e-05 s⁻¹,132000 M⁻¹ s⁻¹,B10
< 0.001 nM,0.368,–,< 1e-07 s⁻¹,476000 M⁻¹ s⁻¹,B11
< 0.001 nM,0.338,~10 fold,< 1e-07 s⁻¹,148000 M⁻¹ s⁻¹,B12

# Biological target: T2, monkey Trop2 protein (Sino Biological, …)
# Assay: BLI, Octet RED96, AHC sensor
# Procedure: as §1
Kd,Response,koff,kon,Binder
0.164 nM,0.418,1.43e-05 s⁻¹,86900 M⁻¹ s⁻¹,B1
0.151 nM,0.319,1.34e-05 s⁻¹,88300 M⁻¹ s⁻¹,B2
0.319 nM,0.344,3.41e-05 s⁻¹,107000 M⁻¹ s⁻¹,B3
1.02 nM,0.343,0.000105 s⁻¹,103000 M⁻¹ s⁻¹,B4
0.536 nM,0.349,6.15e-05 s⁻¹,115000 M⁻¹ s⁻¹,B5
2.38 nM,0.351,0.00018 s⁻¹,75800 M⁻¹ s⁻¹,B6
1.91 nM,0.379,0.000139 s⁻¹,72700 M⁻¹ s⁻¹,B7
0.307 nM,0.372,3.39e-05 s⁻¹,111000 M⁻¹ s⁻¹,B8
4.26 nM,0.356,0.000219 s⁻¹,51500 M⁻¹ s⁻¹,B9
0.708 nM,0.406,6.23e-05 s⁻¹,87900 M⁻¹ s⁻¹,B10
< 0.001 nM,0.387,< 1e-07 s⁻¹,307000 M⁻¹ s⁻¹,B11
0.409 nM,0.329,3.98e-05 s⁻¹,97400 M⁻¹ s⁻¹,B12

# Biological target: T3, human Trop2 on cells
# Assay: flow cytometry on 293T-human Trop2 cells
# Procedure: The cell density was determined, and the cells were resuspended to 1×10⁶ cells/mL in PBS. 100 μL of cell suspension was taken from each well and added to a 96 well V-bottom plate. The 96-well V-bottom plate was centrifuged at 1000 rpm for 5 min and washed once with PBS+0.5% BSA (VWR, #0332-100G). […] After 1 h, the cells were washed twice with PBS+0.5% BSA. The cells were incubated with 100 μL of Alexa Fluor 488 goat anti-human IgG (Life technologies, 1:1000, #A-11013) at 4° C. for 1 h in the dark, and washed twice with PBS+0.5% BSA. The cells were resuspended in 200 μL of PBS+0.5% BSA. The fluorescence intensity of the cells was analyzed using a FACS verse flow cytometer. All procedures were performed on ice.
EC50,Maximum (MFI),Top %,Binder
0.441 nM,6920 MFI,107%,B1
0.997 nM,6600 MFI,102%,B2
0.589 nM,6570 MFI,101%,B3
1.93 nM,7180 MFI,111%,B4
1.67 nM,7270 MFI,112%,B5
1.61 nM,7510 MFI,116%,B6
2.11 nM,7470 MFI,115%,B7
0.977 nM,6790 MFI,105%,B8
2.54 nM,7320 MFI,113%,B9
1.26 nM,6950 MFI,107%,B10
0.352 nM,6960 MFI,107%,B11
0.478 nM,6730 MFI,104%,B12

# Biological target: T2, monkey Trop2 protein (Sino Biological, …)
# Assay: BLI, Octet RED96; ratio against KD for human Trop2 protein
# Procedure: as §1
row,KD (monkey)/KD (human),Binder
1,6.02,B2
2,9.76,B3
3,7.57,B4
4,5.85,B5
5,2.12,B6
6,2.24,B7
7,2.32,B9
8,4.56,B10
